Results reported in paper PMC12102759.

B1: TPTE2 peptide 92-107 (Phosphatidylinositol 3,4,5-trisphosphate 3-phosphatase TPTE2), 16-mer library wild type / TLN1 PTB (TLN1 Phosphotyrosine-binding (PTB) domain, residues 309-401) (parent)
chain 1: LADLIFTDSKLYIPLE
chain 2: GVSFFLVKEKMKGKNKLVPRLLGITKECVMRVDEKTKEVIQEWNLTNIKRWAASPKSFTLDFGDYQDGYYSVQTTEGEQIAQLIAGYIDIILK
B2: PAIP1 peptide 124-139 (Polyadenylate-binding protein-interacting protein 1), 16-mer library wild type / PABPC1 PABC (PABPC1 PABC domain, residues 544-623) (parent)
chain 1: LMSKLSVNAPEFYPSG
chain 2: PLTASMLASAPPQEQKQMLGERLFPLIQAMHPTLAGKITGMLLEIDNSELLHMLESPESLRSKVDEAVAVLQAHQAKEAA
B3: PIP5K1C peptide 640-655 (Phosphatidylinositol 4-phosphate 5-kinase type-1 gamma), 16-mer library wild type / TLN1 PTB (TLN1 Phosphotyrosine-binding (PTB) domain, residues 309-401) (parent)
chain 1: FPTDERSWVYSPLHYS
chain 2: B1 chain 2
B4: PEX5 peptide 108-123 (Peroxisomal targeting signal 1 receptor), 16-mer library wild type / PEX14 Pex14 (PEX14 PEX14, residues 16-84) (parent)
chain 1: GVADLALSENWAQEFL
chain 2: TPGSENVLPREPLIATAVKFLQNSRVRQSPLATRRAFLKKKGLTDEEIDMAFQQSGTAADEPSSLGPAT

Variants of: B1
Assay: proteomic peptide phage display deep mutational scan (ProP-PD DMS): M13 P8 16-mer library selected against immobilised GST-tagged bait for four days (rounds), NGS of the eluted pools per day and pseudo-replica
Details: with TLN1 PTB (TLN1 Phosphotyrosine-binding (PTB) domain, residues 309-401); bait immobilised on MaxiSorp plates (10 µg), library pre-cleared on GST, 2 h binding at 4 °C, five washes; one round per day, days 1-4; value from days 2 and 3; keep out of graded; scale: average fractional NGS count over selection days 2 and 3

Screen value of substitutions, site by site:
chain 1 L4: N 5.11e-05, K 6.56e-05, R 0
chain 1 Y12: Q 0, L 0
chain 1 E16: R 3.05e-05
chain 1 L11: W 0, A 6.5e-05, Y 4.09e-05, S 3.91e-05, F 0.000112
chain 1 D8: M 0, S 4.41e-05, V 7.58e-05, K 2.8e-05, H 2.4e-05
chain 1 I13: Q 8.06e-05, S 9.27e-05, W 0.000116, Y 5.85e-05, H 7.12e-05, D 0, M 3.76e-05
chain 1 P14: F 0, M 0, R 0, E 0, Q 0, Y 7.88e-05, S 2.74e-05
chain 1 F6: P 9.98e-05, S 0, Y 8.2e-05, A 0, M 0, G 0
chain 1 T7: R 6.19e-05, A 4.1e-05, E 8.56e-05, F 3.05e-05, I 3.48e-05
chain 1 A2: V 0.000107, F 2.74e-05
chain 1 K10: W 6.74e-05, V 7.83e-05
chain 1 S9: K 0
chain 1 L15: T 3.85e-05, E 6.68e-05
chain 1 D3: H 0.000117, W 0, F 9.05e-05, A 4.9e-05

Variants of: B2
Assay: as above
Details: with PABPC1 PABC (PABPC1 PABC domain, residues 544-623); bait immobilised on MaxiSorp plates (10 µg), library pre-cleared on GST, 2 h binding at 4 °C, five washes; one round per day, days 1-4; value from days 2 and 3; keep out of graded; scale: average fractional NGS count over selection days 2 and 3

Screen value, by site and new letter:
chain 1 P10: V 0.000185, W 0
chain 1 K4: S 0.000112, W 0.000136, F 0.000173
chain 1 E11: W 0, H 0.000179, L 0.000185
chain 1 F12: D 0, A 0
chain 1 S6: K 0, Q 4.7e-05
chain 1 S15: L 0.000141
chain 1 A9: G 0, T 0.000154, L 0, M 0, V 8.33e-05
chain 1 N8: I 9.39e-05, V 0.000243, Q 0.000156, K 0, H 0.000197
chain 1 L5: F 7.31e-05, I 6.08e-05, V 0, Y 5.13e-05, S 0, E 0.00011
chain 1 Y13: P 0, F 8.82e-05, N 3.07e-05
chain 1 P14: N 0, F 0.000167, H 4.17e-05, T 8.32e-05, S 0.000163
chain 1 M2: D 9.64e-06, R 0.000185, H 0.000247, F 1.57e-05, Y 0
chain 1 G16: L 0.000165, P 0.000264
chain 1 S3: F 4.71e-05, R 0, Y 0.00023
chain 1 V7: K 0, I 0.00011, L 1.45e-05, M 0, T 0.000112

Variants of: B3
Assay: as above
Details: with TLN1 PTB (TLN1 Phosphotyrosine-binding (PTB) domain, residues 309-401); bait immobilised on MaxiSorp plates (10 µg), library pre-cleared on GST, 2 h binding at 4 °C, five washes; one round per day, days 1-4; value from days 2 and 3; keep out of graded; scale: average fractional NGS count over selection days 2 and 3

Screen value, by site and new letter:
chain 1 E5: Y 0.000182, N 0.00102, V 0.00021, P 0.00165, K 0.000102, S 0.000272, Q 6.1e-05, T 0.000451, I 0.000716, W 0.000904, L 0.00192, H 0.000485, G 0.000212, M 0.000263, A 0.000188, F 0.000369
chain 1 P2: Y 6.83e-05, G 9.49e-05, E 0.000182, H 2.4e-05, R 5.46e-05, A 4.1e-05, N 0.000183, L 0.000825, W 0.000111, T 0.000173, D 0.000759, S 0.000281, V 0.000569, F 2.4e-05, Q 7.98e-05
chain 1 H14: L 9.59e-05, E 0.000433, V 0.000348, T 0.00119, F 2.74e-05, D 0.000394, Y 0.000112, S 0.000388, A 0.000225, W 5.14e-05, G 0.00022, P 0.000231, K 0.00016, M 0.00119, R 0.000159, I 4.44e-05, N 3.05e-05, Q 0.000124
chain 1 P12: N 0.000185, Q 0.000705, R 0.000314, M 7.3e-05, T 0.000179, A 0.000632, E 0.00013, I 0.000302, H 5.79e-05, K 5.51e-05, L 0.000701, W 0.000107, G 0.000862, S 0.000121, F 7.27e-05, V 9.3e-05
chain 1 D4: W 8.26e-05, Q 0.000121, G 0.000716, V 5.15e-05, I 7.24e-05, P 7.86e-05, M 2.74e-05, N 3.05e-05, S 0.000264, F 0.00015, R 0.000156, T 0.000121, H 0.000241, A 0.000109, E 2.74e-05, L 0.000325
chain 1 R6: N 8.35e-05, I 0.000686, D 0.000455, G 5.92e-05, W 0.000249, T 0.000205, M 0.00014, Q 9.86e-05, H 3.76e-05, L 0.000156, E 0, F 0, Y 0.000115, P 0.000213, S 0.00302, A 0.00241, K 9.21e-05, V 0.000984
chain 1 L13: S 0.000183, I 0.000497, D 0, Y 0.000435, N 4.75e-05, Q 5.12e-05, A 0.000116, W 0.00176, M 0.000592, V 0.00019, F 0.00025, G 0.000132
chain 1 S7: E 6.81e-05, G 6.31e-05, D 8.2e-05

Variants of: B4
Assay: as above
Details: with PEX14 Pex14 (PEX14 PEX14, residues 16-84); bait immobilised on MaxiSorp plates (10 µg), library pre-cleared on GST, 2 h binding at 4 °C, five washes; one round per day, days 1-4; value from days 2 and 3; scale: average fractional NGS count over selection days 2 and 3

Screen value of substitutions, site by site:
chain 1 L16: V 0.00389, G 0.00105, I 0, N 0, H 0.000215, F 0, D 0, E 0.00013, R 0.000857
chain 1 E9: S 0, F 0.000305, V 0.000378, M 0.000152, Y 9.07e-05, N 0.000239, Q 0, L 0.000321, D 0.000711, I 0, R 0
chain 1 Q13: E 0.000434, P 0.000626, L 0.000475, H 0.000362, F 0, T 0.000462, W 0.000116, G 0.000163
chain 1 L7: P 0.000675, K 0.000262, Q 0, S 0.00013, G 0.000778, N 0, V 0.000339
chain 1 A3: K 0.000328, E 7.71e-05, R 0, F 0, W 7.47e-05, S 0.000118, D 0, Q 0.000248, H 0.000109, P 0.000212
chain 1 D4: I 9.56e-05, E 0.000293, K 0, L 0.00112, A 0.000207, Q 0.000734, S 0.00106, T 0, V 0, N 0
chain 1 E14: F 0.000333, R 0.00542, A 0.00268, I 0.000908, V 0.000334, Y 0.00013, H 0.000765, T 0.000432, K 0.00049, D 0.000196, W 0.00347, S 0.00161, Q 0.00136, G 0.000243
chain 1 L5: S 0.000191, G 0, W 0.000435, F 0, D 0.000324, Y 0.000821, V 0.00065
chain 1 S8: Y 0.0012, P 9.07e-05, W 9.4e-05, A 0.000717, H 0.0106
chain 1 V2: T 0, I 0, K 0
chain 1 N10: L 0.000191, D 0, P 0.00066, V 0.000297, W 0.000211, F 0.000356, T 0.000176, K 0.000111, M 6.63e-05, G 0, Y 0.00069
chain 1 A12: V 0, D 0, I 0.000211, T 0.000373, G 0.000152, H 0.000439, W 6.63e-05, R 0
chain 1 W11: F 0
chain 1 A6: Q 0.000383, E 0, Y 0, H 0.000488, V 0, F 0.000385, L 0.000211
chain 1 F15: Y 0, H 0.00727, K 0, W 0.000382, I 0
